Measurements published in paper PMC7608914, “Bridging of nucleosome-proximal DNA double-strand breaks by PARP2 enhances its interaction with HPF1”.

How the values were obtained:
Conditions in all cases: protein: recombinant; (HisTrap purified); label: 6-FAM on 5' end of bottom strand; blunt
PARP2-WT [1] = biological target: T1, PARP2-WT (Homo sapiens, UniProt Q9UGN5-2 1-570); experiment: fluorescence polarization; 60 mM KCl, 8 mM MgCl2; FP/FRET: 50 mM Tris-HCl pH 8, 50 mM NaCl, 1 mM MgCl2, 0.1 mM EDTA, 0.1 mM TCEP, 0.01% NP-40, temperature not stated; EMSA: 20 mM Tris pH 7.5, 1 mM EDTA, 1 mM DTT, 4 C
PARP2-QFRD [2] = biological target: T2, PARP2-QFRD (Homo sapiens, UniProt Q9UGN5-2 1-570, Q112R;F113D); experiment: as above
PARP2-QFRD [3] = biological target: T2, PARP2-QFRD; experiment: fluorescence polarization; 50 mM NaCl, 1 mM MgCl2; Hill 0.9; FP/FRET: 50 mM Tris-HCl pH 8, 50 mM NaCl, 1 mM MgCl2, 0.1 mM EDTA, 0.1 mM TCEP, 0.01% NP-40, temperature not stated; EMSA: 20 mM Tris pH 7.5, 1 mM EDTA, 1 mM DTT, 4 C
PARP2-WT [4] = biological target: T1, PARP2-WT; experiment: fluorescence polarization; 50 mM NaCl, 1 mM MgCl2; Hill 1.2; FP/FRET: 50 mM Tris-HCl pH 8, 50 mM NaCl, 1 mM MgCl2, 0.1 mM EDTA, 0.1 mM TCEP, 0.01% NP-40, temperature not stated; EMSA: 20 mM Tris pH 7.5, 1 mM EDTA, 1 mM DTT, 4 C

B1: p18mer_fluorescein (dsDNA)
DNA 1: GGGTTGCGGCCGCTTGGG
DNA 2: CCCAAGCGGCCGCAACCC
modifications: 5'-phosphate on top strand
Q: B1 was tested. Which Kd (PARP2-WT [1]) did it give?
A: ~240 nM

Q: What about the Kd (PARP2-QFRD [2]) of the same binder?
A: ~240 nM

Q: What about the Kd (PARP2-QFRD [3]) of the same binder?
A: 17.1 ± 1.8 nM

Q: What about the Kd (PARP2-WT [4]) of the same binder?
A: 11.1 ± 0.4 nM
